The record followed here is patent US20210380703A1 (RIGEL PHARMACEUTICALS, published 2021).

B1: 365_D05 (antibody, V domains shown)
VH: EVQLLESGGGLVQPGGSLRLSCAASGFTFDSYSMNWVRQAPGKGLEWVAGINYNGGYTSYADSVKGRFTISRDNSKNTLYLQMNSLRAEDTAVYYCARSATWHDTHLDYWGQGTLVTVSS
VL: DIQMTQSPSSLSASVGDRVTITCRASQSILTYVNWYQQKPGKAPKLLIYAATSRASGVPSRFSGSGSGTDFTLTISSLQPEDFATYYCQQSYNSPLTFGGGTKVEIK
notes: VH/VL only
B2: 366_C01 (antibody, V domains shown)
VH: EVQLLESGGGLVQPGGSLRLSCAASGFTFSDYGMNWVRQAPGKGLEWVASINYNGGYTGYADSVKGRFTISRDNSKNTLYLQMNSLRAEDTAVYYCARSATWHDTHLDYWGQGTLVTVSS
VL: B1 VL with L30V, V33L, R54P, N93E, S94L
notes: VH/VL only
B3: 366_D07 (antibody, V domains shown)
VH: not shown
VL: B1 VL with V33L, R54L, N93S
notes: VH/VL only
B4: 367_E02 (antibody, V domains shown)
VH: B1 VH with S59G
VL: not shown
notes: VH/VL only
B5: 365_G12 (antibody, V domains shown)
VH: B1 VH with D30S, S33G, G55S, H106A
VL: B1 VL with T31S, L47V, N93S, S94N
notes: VH/VL only
B6: 366_B04 (antibody, V domains shown)
VH: B1 VH with T58K, S59G
VL: B1 VL with L47V, A55H, N93D, S94T
notes: VH/VL only
B7: 367_F02 (antibody, V domains shown)
VH: B1 VH with G50N
VL: B1 VL with L30I, T31S, A55H, N93E
notes: VH/VL only
B8: 367_A09 (antibody, V domains shown)
VH: B1 VH with S33G
VL: B1 VL with T31S, L47V, A55H, N93D, S94T
notes: VH/VL only
B9: 365_F08 (antibody, V domains shown)
VH: B1 VH with S31D, S33G, G50N
VL: B1 VL with T31S, A55H, N93S, S94L
notes: VH/VL only
B10: 367_G07 (antibody, V domains shown)
VH: B1 VH with G50N, S59G
VL: B1 VL with N93D, S94N
notes: VH/VL only
B11: 365_F07 (antibody, V domains shown)
VH: B1 VH with D30S, A49S, G50N, T58K, H106A
VL: B1 VL with T31S, L47V, N93D, S94L
notes: VH/VL only
B12: 366_H05 (antibody, V domains shown)
VH: B1 VH with S33G, N35H, G50S
VL: B1 VL with T31S, R54L, N93D, S94L
notes: VH/VL only
B13: 367_A01 (antibody, V domains shown)
VH: B1 VH with D30S, G50S, S59G
VL: B1 VL with V33L, N93D, S94L
notes: VH/VL only
B14: 367_F05 (antibody, V domains shown)
VH: B1 VH with D30S, S33G, G50S, S59G, H106A
VL: B1 VL with T31S, N93S
notes: VH/VL only
B15: 366_A05 (antibody, V domains shown)
VH: B1 VH with D30S, G55S, S59G
VL: B1 VL with L47V, R54L, S94T
notes: VH/VL only
B16: 365_F04 (antibody, V domains shown)
VH: B1 VH with D30S, S33G, S59G
VL: B1 VL with L30V, N93D, S94T
notes: VH/VL only
B17: 366_C02 (antibody, V domains shown)
VH: B1 VH with D30S, S31D, G50N, S59G
VL: B1 VL with L30V, T31S, V33L, N93D, S94N
notes: VH/VL only
B18: 365_E02 (antibody, V domains shown)
VH: B1 VH with D30S, G50N, R98K
VL: B1 VL with L30I, T31S, V33L, N93E, S94N
notes: VH/VL only
B19: 366_D02 (antibody, V domains shown)
VH: B1 VH with D30S, G50S
VL: B1 VL with T31S, A51T, R54L, N93D, S94L
notes: VH/VL only
B20: 367_C03 (antibody, V domains shown)
VH: B1 VH with D30S, G50N, S59G, H106A
VL: B1 VL with T31S, L47V, A51T, N93E, S94N
notes: VH/VL only
B21: 366_A03 (antibody, V domains shown)
VH: B1 VH with G55S, T58K, S59G
VL: B1 VL with L30S, T31S, V33L, R54L, N93S, S94N
notes: VH/VL only
B22: 366_A09 (antibody, V domains shown)
VH: B1 VH with D30S, S31D, S33G, N35H, G50S, G55S
VL: B1 VL with V33L, A55H, N93E, S94T
notes: VH/VL only

Residue numbers refer to the chain shown, from its start.
Also: test concentration or dose not given here.

Sequence of mouse ACVR2A (P27038 20-135 limits assumed): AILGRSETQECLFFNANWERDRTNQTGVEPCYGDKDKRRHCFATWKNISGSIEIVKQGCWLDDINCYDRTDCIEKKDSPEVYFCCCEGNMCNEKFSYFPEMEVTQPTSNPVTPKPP

For the first test, the target named is human ACVR2A (human, UniProt P27037 20-135, limits assumed). Put plainly: ELISA. The gist of the method: (§1)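 ELISA measured binding of ACVR2A-specific monoclonal antibodies to human and mouse ACVR2A. Biotinylated goat anti-human kappa light chain served as positive control and human Fc as negative control.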
Sequence of human ACVR2A (P27037 20-135 limits assumed): as the sequence (P27038 20-135 limits assumed) above, with R20K, I73V counted along it
A general note: An ELISA detects its analyte on a solid surface through an enzyme-linked reagent.
For the molecule B1, the optical density stood at 2.58 OD.
B2 came in with an optical density of 2.31 OD.
B3 registered an optical density of 2.41 OD.
B4 registered an optical density of 1.87 OD.
On the same count and under the same terms, as for B5, the figure is 2.74 OD; as for B6, 2.81 OD; as for B7, 2.38 OD.
B8: the optical density worked out at 2.18 OD.
With B9, the optical density was found to be 2.25 OD.
B10 came in with an optical density of 3.02 OD.
For B11, the optical density was determined as 3.12 OD.
On the same count and under the same terms, in the case of B12 it was 2.44 OD.
In turn, B13 yielded an optical density of 3.18 OD.
In turn, B14 yielded an optical density of 2.27 OD.
B15 displayed an optical density of 2.62 OD.
With B16, the optical density was determined as 2.26 OD.
Regarding B17, the optical density came to 3.03 OD.
Molecule B18 returned an optical density of 2.45 OD.
The molecule B19 returned an optical density of 2.27 OD.
As to B20, the optical density was determined as 2.3 OD.
Same read-out and setting: as for B21, the figure is 1.15 OD.
Molecule B22 displayed an optical density of 1.79 OD.

In the next test the target is mouse ACVR2A (mouse, UniProt P27038 20-135, limits assumed). The test can be described thus: ELISA. An outline of the steps:
as §1
B1 gave an optical density of 2.72 OD.
B2 returned an optical density of 2.41 OD.
Same read-out and setting: in the case of B3 it was 2.62 OD; in that of B4, 2.03 OD; in that of B5, 2.75 OD.
B6: the optical density stood at 3.05 OD.
B7 displayed an optical density of 2.27 OD.
As to B8, the optical density came out at 2.41 OD.
As for B9, the optical density worked out at 2.61 OD.
Turning to B10, the optical density was 3.2 OD.
Molecule B11 gave an optical density of 3.18 OD.
Still for that read-out and setting: as for B12, the figure is 2.74 OD.
B13 returned an optical density of 3.28 OD.
B14 yielded an optical density of 2.48 OD.
B15 yielded an optical density of 2.6 OD.
Still for that read-out and setting: in the case of B16 it was 2.51 OD.
In turn, B17 returned an optical density of 3.04 OD.
As to B18, the optical density amounted to 2.61 OD.
B19: the optical density is 2.55 OD.
On the same count and under the same terms, in the case of B20 it was 2.81 OD; in that of B21, 1.12 OD; in that of B22, 1.93 OD.

Another test addresses T1, biotinylated goat anti-human kappa light chain.
T1 construct: Positive control of the ELISA
Put plainly: ELISA; positive control. An outline of the steps: as §1
As to B1, the optical density amounted to 3.51 OD.
On the same count and under the same terms, as for B2, the figure is 3.6 OD; as for B3, 3.38 OD.
With B4, the optical density was 3.44 OD.
The molecule B5 yielded an optical density of 3.55 OD.
For the molecule B6, the optical density turned out to be 3.4 OD.
B7 yielded an optical density of 3.52 OD.
B8 returned an optical density of 3.45 OD.
Molecule B9 showed an optical density of 3.63 OD.
B10 gave an optical density of 3.29 OD.
In turn, B11 returned an optical density of 3.39 OD.
The same measure, in the same setting: in the case of B12 it was 3.47 OD; in that of B13, 3.51 OD.
The molecule B14 had an optical density of 3.44 OD.
B15 came in with an optical density of 3.48 OD.
For B16, the optical density was determined as 3.47 OD.
B17 registered an optical density of 3.43 OD.
B18 returned an optical density of 3.5 OD.
For B19, the optical density came out at 3.57 OD.
Still for that read-out and setting: in the case of B20 it was 3.51 OD; in that of B21, 3.31 OD.
For the molecule B22, the optical density stood at 3.28 OD.
